The test system of the series is Escherichia coli TOP10. Nature of the series: shrunken log2 fold change of peptide-encoding DNA abundance (4.5 h post-induction vs induction); higher = less antimicrobial activity (less host growth inhibition). The conditions noted are these: time post-induction: 4.5 h; library: site-saturation at positions 5, 18, 19, 20.
With RRIRGRPPRLPRPRPRPVWKPRP, the “shrunken log2 fold change” value was found to be 0.113.
Regarding RRIRKRPPRLPRPRPRPVMFPRP, the “shrunken log2 fold change” value came to 0.124.
Turning to RRIRFRPPRLPRPRPRPNLGPRP, the “shrunken log2 fold change” value is -0.0272.
RRIRWRPPRLPRPRPRPQLYPRP: the “shrunken log2 fold change” value worked out at 0.185.
For RRIRLRPPRLPRPRPRPYISPRP, the “shrunken log2 fold change” value was -0.374.
For RRIRLRPPRLPRPRPRPDTQPRP, the “shrunken log2 fold change” value turned out to be 0.0809.
Take RRIRTRPPRLPRPRPRPCKLPRP: the “shrunken log2 fold change” value is -0.858.
On to RRIRCRPPRLPRPRPRPRIQPRP, for which the “shrunken log2 fold change” value is -0.196.
Next, RRIRERPPRLPRPRPRPHGGPRP: -0.0234.
Next, RRIRHRPPRLPRPRPRPDFKPRP: -0.127; RRIRKRPPRLPRPRPRPKKEPRP: 0.00375.
Turning to RRIRHRPPRLPRPRPRPLERPRP, the “shrunken log2 fold change” value was -0.0962.
RRIRERPPRLPRPRPRPKEKPRP: the “shrunken log2 fold change” value came out at 0.121.
As for RRIRMRPPRLPRPRPRPQPHPRP, the figure is 0.46; as for RRIRDRPPRLPRPRPRPGIIPRP, -0.171; as for RRIRLRPPRLPRPRPRPIDHPRP, -0.154.
As for RRIRYRPPRLPRPRPRPFWKPRP, the figure is 0.226; as for RRIRCRPPRLPRPRPRPWIEPRP, -0.123; as for RRIRLRPPRLPRPRPRPTCTPRP, -0.0583.
With RRIRLRPPRLPRPRPRPDHNPRP, the “shrunken log2 fold change” value was -0.00288.
As for RRIRFRPPRLPRPRPRPSIQPRP, the figure is -0.0528.
Next, RRIRFRPPRLPRPRPRPCGWPRP: 0.42; RRIRYRPPRLPRPRPRPPFWPRP: 0.395; RRIRWRPPRLPRPRPRPGFAPRP: 0.382.
As to RRIRNRPPRLPRPRPRPWIAPRP, the “shrunken log2 fold change” value was -0.135.
Regarding RRIRIRPPRLPRPRPRPLSCPRP, the “shrunken log2 fold change” value is -0.253.
Take RRIRKRPPRLPRPRPRPYWAPRP: the “shrunken log2 fold change” value was -0.448.
For the sequence RRIRWRPPRLPRPRPRPQHFPRP, the “shrunken log2 fold change” value worked out at 0.418.
As for RRIRFRPPRLPRPRPRPERKPRP, the figure is 0.0154.
Regarding RRIRKRPPRLPRPRPRPVAAPRP, the “shrunken log2 fold change” value was 0.721.
Turning to RRIRKRPPRLPRPRPRPIPDPRP, the “shrunken log2 fold change” value is 0.2.
In the case of RRIRSRPPRLPRPRPRPIPCPRP, the “shrunken log2 fold change” value is -0.297.
Next, RRIRLRPPRLPRPRPRPNKKPRP: -0.256.
For the sequence RRIRARPPRLPRPRPRPWVLPRP, the “shrunken log2 fold change” value was -0.0908.
As to RRIRHRPPRLPRPRPRPRICPRP, the “shrunken log2 fold change” value amounted to 0.0205.
On to RRIRCRPPRLPRPRPRPTMRPRP, for which the “shrunken log2 fold change” value turned out to be 0.529.
With RRIRHRPPRLPRPRPRPPLWPRP, the “shrunken log2 fold change” value stood at 0.323.
RRIRFRPPRLPRPRPRPLLFPRP: the “shrunken log2 fold change” value is -0.315.
Consider RRIRYRPPRLPRPRPRPFGQPRP, for which the “shrunken log2 fold change” value was -0.219.
With RRIRGRPPRLPRPRPRPGVDPRP, the “shrunken log2 fold change” value stood at 0.951.
Regarding RRIRRRPPRLPRPRPRPDWDPRP, the “shrunken log2 fold change” value is -0.0829.
As for RRIRCRPPRLPRPRPRPCAYPRP, the “shrunken log2 fold change” value was -0.153.
For RRIRSRPPRLPRPRPRPHLAPRP, the “shrunken log2 fold change” value was -0.0617.
Take RRIRNRPPRLPRPRPRPTCCPRP: the “shrunken log2 fold change” value is -0.0383.
For RRIRLRPPRLPRPRPRPHLSPRP, the “shrunken log2 fold change” value was -0.0728.
RRIRPRPPRLPRPRPRPRNEPRP: the “shrunken log2 fold change” value is 0.139.
As to RRIRERPPRLPRPRPRPEHMPRP, the “shrunken log2 fold change” value was -0.0272.
For RRIRQRPPRLPRPRPRPGMTPRP, the “shrunken log2 fold change” value was 0.00903.
Next, RRIRPRPPRLPRPRPRPFHHPRP: -0.763.
Turning to RRIRPRPPRLPRPRPRPHKCPRP, the “shrunken log2 fold change” value was -0.19.
RRIRERPPRLPRPRPRPHDDPRP: the “shrunken log2 fold change” value was -0.147.
For RRIRNRPPRLPRPRPRPWYTPRP, the “shrunken log2 fold change” value came to 0.0349.
As for RRIRNRPPRLPRPRPRPTGHPRP, the figure is 0.0742; as for RRIRNRPPRLPRPRPRPNSWPRP, -0.3.
Consider RRIRLRPPRLPRPRPRPSYAPRP, for which the “shrunken log2 fold change” value is -0.134.
On to RRIRMRPPRLPRPRPRPQYKPRP, for which the “shrunken log2 fold change” value is -0.0699.
For the sequence RRIRTRPPRLPRPRPRPDKVPRP, the “shrunken log2 fold change” value is -0.0275.
With RRIRMRPPRLPRPRPRPAQSPRP, the “shrunken log2 fold change” value worked out at 2.88.
As for RRIRGRPPRLPRPRPRPDFFPRP, the figure is 1.1.
RRIRRRPPRLPRPRPRPKCYPRP: the “shrunken log2 fold change” value was 0.00463.
For the sequence RRIRARPPRLPRPRPRPHDPPRP, the “shrunken log2 fold change” value was 0.402.
On to RRIRLRPPRLPRPRPRPETPPRP, for which the “shrunken log2 fold change” value is 0.178.
On to RRIRVRPPRLPRPRPRPLGFPRP, for which the “shrunken log2 fold change” value amounted to 0.196.
As for RRIRGRPPRLPRPRPRPAKVPRP, the figure is 0.431; as for RRIRIRPPRLPRPRPRPTMNPRP, -1.01.
Take RRIRERPPRLPRPRPRPWWVPRP: the “shrunken log2 fold change” value is -0.056.
With RRIRFRPPRLPRPRPRPQVIPRP, the “shrunken log2 fold change” value was -0.364.
Turning to RRIRKRPPRLPRPRPRPHMRPRP, the “shrunken log2 fold change” value stood at 0.0568.
As for RRIRSRPPRLPRPRPRPPDPPRP, the “shrunken log2 fold change” value worked out at 0.472.
Consider RRIRMRPPRLPRPRPRPWGSPRP, for which the “shrunken log2 fold change” value amounted to 0.0578.
Regarding RRIRFRPPRLPRPRPRPGGIPRP, the “shrunken log2 fold change” value is -0.0183.
Turning to RRIRIRPPRLPRPRPRPMTMPRP, the “shrunken log2 fold change” value is -0.01.
Regarding RRIRQRPPRLPRPRPRPYGYPRP, the “shrunken log2 fold change” value was -0.354.
RRIRLRPPRLPRPRPRPSEKPRP: the “shrunken log2 fold change” value was -0.0219.
Next, RRIRNRPPRLPRPRPRPMQHPRP: -0.0549; RRIRNRPPRLPRPRPRPFSYPRP: -0.171; RRIRIRPPRLPRPRPRPYGFPRP: -0.0889.
As for RRIRVRPPRLPRPRPRPIKSPRP, the “shrunken log2 fold change” value was -0.184.
Take RRIRDRPPRLPRPRPRPFGSPRP: the “shrunken log2 fold change” value came to 0.0468.
RRIRRRPPRLPRPRPRPVHCPRP: the “shrunken log2 fold change” value was found to be 0.345.
With RRIRARPPRLPRPRPRPVWIPRP, the “shrunken log2 fold change” value was -0.0967.
On to RRIRTRPPRLPRPRPRPEQFPRP, for which the “shrunken log2 fold change” value is -0.0905.
Turning to RRIRCRPPRLPRPRPRPDKQPRP, the “shrunken log2 fold change” value is -0.0405.
Consider RRIRNRPPRLPRPRPRPRQPPRP, for which the “shrunken log2 fold change” value came to 0.428.
In the case of RRIRHRPPRLPRPRPRPWTAPRP, the “shrunken log2 fold change” value was -0.0875.
As for RRIRLRPPRLPRPRPRPFACPRP, the figure is 0.119; as for RRIRKRPPRLPRPRPRPEKCPRP, 0.0317.
In the case of RRIRARPPRLPRPRPRPEGDPRP, the “shrunken log2 fold change” value stood at 1.39.
Next, RRIRLRPPRLPRPRPRPYTAPRP: -0.863; RRIRQRPPRLPRPRPRPVYIPRP: -0.214.
As for RRIRPRPPRLPRPRPRPDWRPRP, the figure is 0.321.

The values above are taken from the supplement of paper PMC9112550, “Optimization of the antimicrobial peptide Bac7 by deep mutational scanning” (BMC Biology, 2022).
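Further: peptides expressed intracellularly from a pBAD plasmid library in pooled LB shake-flask culture, induced with 0.3% L-arabinose, DNA abundance read by NGS, three biological replicates, DESeq2 with apeglm shrinkage.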
